Biological target: amyloid beta (Aβ, measured as Aβ40) in conditioned medium from Tg2576 neuronal cultures (TgCM) (human and murine) (UniProt P05067)
Test: immunodepletion of TgCM with 9 µg 6E10 and Protein G-Sepharose beads; Aβ40 ELISA of the supernatant (TgCM about 12 nM Aβ40 before depletion)

Chain of amyloid beta (Aβ, measured as Aβ40) in conditioned medium from Tg2576 neuronal cultures (TgCM) (human and murine) (P05067 672-711 limits assumed): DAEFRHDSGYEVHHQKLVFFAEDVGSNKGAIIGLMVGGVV

## 6E10 (Signet), a high-titer mouse monoclonal Aβ antibody reactive to amino acid residue 1-16 of beta amyloid
  Aβ40 left in the medium after immunodepletion: 0.1 nM

From patent US20160333063A1, “SOLUBLE HIGH MOLECULAR WEIGHT (HMW) TAU SPECIES AND APPLICATIONS THEREOF” (THE GENERAL HOSPITAL CORPORATION, priority 2013, published 2016)
